test system: Escherichia coli TOP10; assay: shrunken log2 fold change of peptide-encoding DNA abundance (4.5 h post-induction vs induction); higher = less antimicrobial activity (less host growth inhibition); conditions: time post-induction: 4.5 h; library: site-saturation at positions 5, 18, 19, 20
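Further: peptides expressed intracellularly from a pBAD plasmid library in pooled LB shake-flask culture, induced with 0.3% L-arabinose, DNA abundance read by NGS, three biological replicates, DESeq2 with apeglm shrinkage.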

Row | Sequence | shrunken log2 fold change
1 | RRIRNRPPRLPRPRPRPIFPPRP | -0.281
2 | RRIRDRPPRLPRPRPRPKFQPRP | 0.00463
3 | RRIRHRPPRLPRPRPRPCYMPRP | -0.494
4 | RRIRRRPPRLPRPRPRPAPVPRP | 1.06
5 | RRIRDRPPRLPRPRPRPHLFPRP | 0.00233
6 | RRIRDRPPRLPRPRPRPQDYPRP | -0.112
7 | RRIRMRPPRLPRPRPRPHQMPRP | 0.126
8 | RRIRSRPPRLPRPRPRPTNAPRP | -0.0746
9 | RRIRFRPPRLPRPRPRPGRKPRP | 0.107
10 | RRIRERPPRLPRPRPRPTKVPRP | 0.0356
11 | RRIRDRPPRLPRPRPRPVTHPRP | -0.0987
12 | RRIRSRPPRLPRPRPRPCFHPRP | -0.749
13 | RRIRFRPPRLPRPRPRPWDSPRP | -0.21
14 | RRIRTRPPRLPRPRPRPARSPRP | 0.0134
15 | RRIRPRPPRLPRPRPRPMFEPRP | 0.0626
16 | RRIRMRPPRLPRPRPRPNAWPRP | 0.774
17 | RRIRQRPPRLPRPRPRPFINPRP | -0.241
18 | RRIRRRPPRLPRPRPRPQIPPRP | 0.00964
19 | RRIRWRPPRLPRPRPRPDNVPRP | -0.26
20 | RRIRPRPPRLPRPRPRPFTGPRP | -0.0818
21 | RRIRCRPPRLPRPRPRPYAFPRP | -0.425
22 | RRIRRRPPRLPRPRPRPYAWPRP | 0.157
23 | RRIRTRPPRLPRPRPRPYRSPRP | 0.0429
24 | RRIRPRPPRLPRPRPRPQLWPRP | 0.221
25 | RRIRWRPPRLPRPRPRPITFPRP | -0.232

Row | Sequence | shrunken log2 fold change
26 | RRIRLRPPRLPRPRPRPDAEPRP | 0.326
27 | RRIRARPPRLPRPRPRPVVHPRP | 0.297
28 | RRIRARPPRLPRPRPRPYWEPRP | -0.312
29 | RRIRWRPPRLPRPRPRPRLGPRP | 0.252
30 | RRIRCRPPRLPRPRPRPHKAPRP | -0.253
31 | RRIRFRPPRLPRPRPRPYTMPRP | -1.06
32 | RRIRFRPPRLPRPRPRPAMPPRP | 0.0356
33 | RRIRSRPPRLPRPRPRPLFNPRP | -0.632
34 | RRIRRRPPRLPRPRPRPCLGPRP | -0.0846
35 | RRIRWRPPRLPRPRPRPLTFPRP | -0.501
36 | RRIRVRPPRLPRPRPRPQTMPRP | -0.689
37 | RRIRDRPPRLPRPRPRPWKRPRP | -0.0239
38 | RRIRARPPRLPRPRPRPSETPRP | 0.176
39 | RRIRWRPPRLPRPRPRPCRPPRP | 0.115
40 | RRIRWRPPRLPRPRPRPDYYPRP | -0.218
41 | RRIRERPPRLPRPRPRPLGYPRP | -0.39
42 | RRIRHRPPRLPRPRPRPVNMPRP | -0.00401
43 | RRIRRRPPRLPRPRPRPMIEPRP | 0.177
44 | RRIRKRPPRLPRPRPRPLMKPRP | 0.0125
45 | RRIRERPPRLPRPRPRPHTDPRP | -0.546
46 | RRIRPRPPRLPRPRPRPELFPRP | 0.25
47 | RRIRNRPPRLPRPRPRPDEMPRP | -0.00822
48 | RRIRIRPPRLPRPRPRPWWSPRP | -0.0718
49 | RRIRFRPPRLPRPRPRPIFTPRP | -0.128
50 | RRIRWRPPRLPRPRPRPKVMPRP | -0.207

Row | Sequence | shrunken log2 fold change
51 | RRIRERPPRLPRPRPRPSFNPRP | -0.637
52 | RRIRERPPRLPRPRPRPKSTPRP | -0.42
53 | RRIRGRPPRLPRPRPRPFYFPRP | 0.219
54 | RRIRNRPPRLPRPRPRPFRKPRP | -0.0467
55 | RRIRSRPPRLPRPRPRPILDPRP | -0.152
56 | RRIRLRPPRLPRPRPRPSARPRP | 0.0346
57 | RRIRSRPPRLPRPRPRPKDNPRP | -0.232
58 | RRIRHRPPRLPRPRPRPVCLPRP | -0.0609
59 | RRIRIRPPRLPRPRPRPKFIPRP | -0.375
60 | RRIRKRPPRLPRPRPRPVKSPRP | 0.155
61 | RRIRVRPPRLPRPRPRPLNQPRP | -0.0183
62 | RRIRERPPRLPRPRPRPWGKPRP | -0.042
63 | RRIRWRPPRLPRPRPRPVPHPRP | 0.271
64 | RRIRIRPPRLPRPRPRPMGYPRP | -0.148
65 | RRIRQRPPRLPRPRPRPTNRPRP | 0.0327
66 | RRIRKRPPRLPRPRPRPHNDPRP | 0.00261
67 | RRIRKRPPRLPRPRPRPWHSPRP | 0.0422
68 | RRIRTRPPRLPRPRPRPHMMPRP | -0.586
69 | RRIRVRPPRLPRPRPRPNAGPRP | 0.0323
70 | RRIRRRPPRLPRPRPRPFWMPRP | 0.0323
71 | RRIRCRPPRLPRPRPRPKRCPRP | -0.00852
72 | RRIRDRPPRLPRPRPRPISYPRP | -0.381
73 | RRIRVRPPRLPRPRPRPTADPRP | 0.27
74 | RRIRYRPPRLPRPRPRPDLEPRP | -0.0757
75 | RRIRWRPPRLPRPRPRPWIHPRP | -0.192

Row | Sequence | shrunken log2 fold change
76 | RRIRRRPPRLPRPRPRPIYSPRP | -0.159
77 | RRIRFRPPRLPRPRPRPIRSPRP | -0.0101
78 | RRIRPRPPRLPRPRPRPYCVPRP | -0.479
79 | RRIRNRPPRLPRPRPRPKGRPRP | 0.0238
80 | RRIRPRPPRLPRPRPRPGTVPRP | -0.182
81 | RRIRYRPPRLPRPRPRPDTYPRP | -0.145
82 | RRIRCRPPRLPRPRPRPTFRPRP | 0.0981
83 | RRIRKRPPRLPRPRPRPFNQPRP | -0.0503
84 | RRIRSRPPRLPRPRPRPPNLPRP | -0.148
85 | RRIRERPPRLPRPRPRPDFLPRP | 0.0309
86 | RRIRKRPPRLPRPRPRPHWQPRP | 0.3
87 | RRIRGRPPRLPRPRPRPSRWPRP | 0.489
88 | RRIRNRPPRLPRPRPRPWISPRP | -0.0184
89 | RRIRNRPPRLPRPRPRPNLSPRP | -0.0459
90 | RRIRERPPRLPRPRPRPQDQPRP | 0.0272
91 | RRIRDRPPRLPRPRPRPGAKPRP | 0.592
92 | RRIRIRPPRLPRPRPRPPGDPRP | -0.0965
93 | RRIRMRPPRLPRPRPRPMRWPRP | 0.539
94 | RRIRSRPPRLPRPRPRPHDTPRP | -0.156
95 | RRIRGRPPRLPRPRPRPPRKPRP | 1.26
96 | RRIRGRPPRLPRPRPRPMALPRP | -0.0079
97 | RRIRTRPPRLPRPRPRPKPYPRP | -0.607
98 | RRIRKRPPRLPRPRPRPLVAPRP | 0.805
99 | RRIRHRPPRLPRPRPRPYNYPRP | -0.00747
100 | RRIRARPPRLPRPRPRPRTYPRP | -0.126

Row | Sequence | shrunken log2 fold change
101 | RRIRTRPPRLPRPRPRPLSEPRP | -0.127
102 | RRIRSRPPRLPRPRPRPISGPRP | -0.176
103 | RRIRVRPPRLPRPRPRPPNHPRP | -0.0404
104 | RRIRARPPRLPRPRPRPLLYPRP | 0.09
105 | RRIRQRPPRLPRPRPRPPANPRP | 0.409
106 | RRIRTRPPRLPRPRPRPTCYPRP | -0.0585
107 | RRIRLRPPRLPRPRPRPAFYPRP | 0.903
108 | RRIRCRPPRLPRPRPRPLVMPRP | -0.0664
109 | RRIRLRPPRLPRPRPRPLVRPRP | -0.105
110 | RRIRVRPPRLPRPRPRPVVQPRP | -0.039
111 | RRIRCRPPRLPRPRPRPMFTPRP | -0.497
112 | RRIRLRPPRLPRPRPRPQANPRP | -0.289
113 | RRIRLRPPRLPRPRPRPSRQPRP | -0.189
114 | RRIRWRPPRLPRPRPRPEVAPRP | 1.25
115 | RRIRKRPPRLPRPRPRPSNTPRP | -0.231
116 | RRIRNRPPRLPRPRPRPRAEPRP | 0.103
117 | RRIRRRPPRLPRPRPRPEAIPRP | 0.445
118 | RRIRIRPPRLPRPRPRPVLLPRP | -0.03
119 | RRIRKRPPRLPRPRPRPHEEPRP | 0.0526
120 | RRIRRRPPRLPRPRPRPLQNPRP | 0.045
121 | RRIRSRPPRLPRPRPRPHIDPRP | -0.369
122 | RRIRWRPPRLPRPRPRPDWNPRP | 0.0393
123 | RRIRDRPPRLPRPRPRPDLDPRP | 0.632
124 | RRIRARPPRLPRPRPRPGCIPRP | 0.315
125 | RRIRYRPPRLPRPRPRPGNDPRP | -0.356
